Molecular target: T1, CD22 (UniProtKB-P20273) on CD22(+) cells (human, UniProt P20273 20-847)
T1 construct: Endogenous CD22 on the NALM6 and Raji cell lines; also called SIGLEC-2; BL-CAM
T1 sequence: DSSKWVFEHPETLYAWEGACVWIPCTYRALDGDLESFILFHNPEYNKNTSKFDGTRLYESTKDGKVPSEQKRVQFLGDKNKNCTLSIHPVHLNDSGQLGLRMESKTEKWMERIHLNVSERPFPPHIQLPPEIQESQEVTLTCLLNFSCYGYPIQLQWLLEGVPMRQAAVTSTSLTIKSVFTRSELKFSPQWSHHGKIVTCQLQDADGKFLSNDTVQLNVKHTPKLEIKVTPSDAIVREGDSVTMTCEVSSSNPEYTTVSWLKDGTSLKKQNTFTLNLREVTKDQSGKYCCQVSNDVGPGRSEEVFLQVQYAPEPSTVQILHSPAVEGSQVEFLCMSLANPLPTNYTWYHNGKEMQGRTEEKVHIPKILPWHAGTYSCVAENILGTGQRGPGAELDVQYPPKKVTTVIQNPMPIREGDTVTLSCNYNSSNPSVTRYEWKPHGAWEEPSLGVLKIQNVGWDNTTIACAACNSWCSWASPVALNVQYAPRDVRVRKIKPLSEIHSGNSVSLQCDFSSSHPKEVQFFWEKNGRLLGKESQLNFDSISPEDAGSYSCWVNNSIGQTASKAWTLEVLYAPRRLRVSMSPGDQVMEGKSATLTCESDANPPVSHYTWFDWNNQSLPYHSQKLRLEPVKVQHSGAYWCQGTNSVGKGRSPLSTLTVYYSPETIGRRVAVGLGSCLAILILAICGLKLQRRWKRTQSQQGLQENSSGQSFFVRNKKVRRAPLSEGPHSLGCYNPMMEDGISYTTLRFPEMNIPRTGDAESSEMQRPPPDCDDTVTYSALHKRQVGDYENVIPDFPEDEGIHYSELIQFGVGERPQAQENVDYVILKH
Test: flow cytometry (FACS) on CD22(+) NALM6 cells, detected with an anti-human Fc second antibody
Experimental: The binding of bispecific CD22-CD3 IgG-scFv antibodies to NALM6 CD22(+) leukemic cells was assayed using FACS. CD22(−) MOLM13 AML cells were used as a negative control for CD22 expression, and anti-CD3 humanized OKT3 (huOKT3) was used as a negative antibody control. […] In contrast, neither the chimeric LL2 IgG+huOKT3 scFv nor the huOKT3 antibody stained the CD22(−) MOLM13 AML cells.

binding result: binds
B1: chimeric anti-CD22-CD3 BsAb (chLL2 x CD3 BsAb) (bispecific antibody)
heavy: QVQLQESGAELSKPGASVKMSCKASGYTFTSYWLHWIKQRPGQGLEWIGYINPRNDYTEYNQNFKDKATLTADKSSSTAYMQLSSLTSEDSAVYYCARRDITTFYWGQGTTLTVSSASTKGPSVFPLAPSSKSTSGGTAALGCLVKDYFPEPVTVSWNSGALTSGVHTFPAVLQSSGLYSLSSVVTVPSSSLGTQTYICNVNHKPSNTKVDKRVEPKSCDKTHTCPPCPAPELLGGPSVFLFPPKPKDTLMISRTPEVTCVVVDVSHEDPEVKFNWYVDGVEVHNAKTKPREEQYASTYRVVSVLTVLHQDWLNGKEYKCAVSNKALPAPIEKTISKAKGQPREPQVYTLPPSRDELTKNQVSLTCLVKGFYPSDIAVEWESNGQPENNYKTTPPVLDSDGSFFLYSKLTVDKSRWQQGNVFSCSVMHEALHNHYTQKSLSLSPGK
light: DIQLTQSPSSLAVSAGENVTMSCKSSQSVLYSANHKNYLAWYQQKPGQSPKLLIYWASTRESGVPDRFTGSGSGTDFTLTISRVQVEDLAIYYCHQYLSSWTFGGGTKLEIKRTVAAPSVFIFPPSDEQLKSGTASVVCLLNNFYPREAKVQWKVDNALQSGNSQESVTEQDSKDSTYSLSSTLTLSKADYEKHKVYACEVTHQGLSSPVTKSFNRGECTSGGGGSGGGGSGGGGSQVQLVQSGGGVVQPGRSLRLSCKASGYTFTRYTMHWVRQAPGKCLEWIGYINPSRGYTNYNQKFKDRFTISRDNSKNTAFLQMDSLRPEDTGVYFCARYYDDHYSLDYWGQGTPVTVSSGGGGSGGGGSGGGGSGGGGSGGGGSGGGGSDIQMTQSPSSLSASVGDRVTITCSASSSVSYMNWYQQTPGKAPKRWIYDTSKLASGVPSRFSGSGSGTDYTFTISSLQPEDIATYYCQQWSSNPFTFGCGTKLQITR
notes: IgG-scFv format: huOKT3 scFv fused to the C-terminus of the LL2 IgG1 light chain; also called chimeric LL2 IgG+huOKT3 scFv

— patent publication US20220177581A1 (Memorial Sloan Kettering, published 2022)
